Measurements as given in patent US5352595, “Myod regulatory region” (Fred Hutchinson Cancer Research Center).

Target: MyoD:E12 heterodimer (UniProt P10085;P15806 P10085:1-318,P15806:1-651)
Test: EMSA

Chain of MyoD:E12 heterodimer (P10085 whole entry, chain 1 of 2): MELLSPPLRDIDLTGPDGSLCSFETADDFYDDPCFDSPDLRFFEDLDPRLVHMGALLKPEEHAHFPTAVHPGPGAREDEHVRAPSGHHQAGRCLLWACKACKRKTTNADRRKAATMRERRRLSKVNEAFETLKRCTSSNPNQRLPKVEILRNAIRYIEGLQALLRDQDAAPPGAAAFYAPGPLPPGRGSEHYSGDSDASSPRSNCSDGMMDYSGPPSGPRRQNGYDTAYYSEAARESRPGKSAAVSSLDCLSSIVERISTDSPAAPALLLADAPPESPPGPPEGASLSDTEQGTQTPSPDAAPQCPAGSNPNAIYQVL
Chain of MyoD:E12 heterodimer (P15806 whole entry, chain 2 of 2): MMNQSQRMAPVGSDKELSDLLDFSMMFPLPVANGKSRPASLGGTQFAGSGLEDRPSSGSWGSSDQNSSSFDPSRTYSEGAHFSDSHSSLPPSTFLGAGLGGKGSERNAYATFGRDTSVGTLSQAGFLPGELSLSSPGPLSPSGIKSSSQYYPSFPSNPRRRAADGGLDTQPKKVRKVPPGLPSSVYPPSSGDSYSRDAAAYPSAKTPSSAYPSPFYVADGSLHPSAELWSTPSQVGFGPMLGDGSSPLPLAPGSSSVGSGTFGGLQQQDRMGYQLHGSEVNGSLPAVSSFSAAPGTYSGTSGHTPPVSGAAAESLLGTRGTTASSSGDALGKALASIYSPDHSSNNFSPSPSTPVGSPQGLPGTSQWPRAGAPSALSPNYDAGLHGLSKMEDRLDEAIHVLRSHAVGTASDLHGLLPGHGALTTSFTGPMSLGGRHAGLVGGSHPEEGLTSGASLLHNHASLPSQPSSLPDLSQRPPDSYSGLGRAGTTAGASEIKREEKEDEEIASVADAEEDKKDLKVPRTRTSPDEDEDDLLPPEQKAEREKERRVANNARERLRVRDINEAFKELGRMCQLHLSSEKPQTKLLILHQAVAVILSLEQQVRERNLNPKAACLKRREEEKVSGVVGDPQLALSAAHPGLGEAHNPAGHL

B1: myoD PRR A site (-190) (dsDNA)
DNA 1: GGCAGCTGCC
DNA 2: GGCAGCTGCC
  binding result: binds
